Assay results as given in patent US20050008648A1 (BOARD OF TRUSTEES OF THE UNIVERSITY OF ILLINOIS, published 2005).

Target: the molecule itself
Assay: X-ray crystal structure
Source text: Crystals were transferred to a cryoprotectant solution that in the case of the citrate condition was made of mineral oil (Sigma) while for the crystals grown in PEG it was composed of the mother liquor and 10% (w/v) xylitol-10% (w/v) sucrose. Once the crystals were mounted in loops, they were frozen by directly immersing them in liquid nitrogen. X-ray data were collected at the Advanced Photon Source using the BioCARS beamlines BM-C and BM-D, and the SERCAT beamline ID-22.
Data for the MAD data set were collected to 2.3 Å resolution. A partially built model into the MAD electron density was used to solve the tetragonal crystals. […] The ligands were refined without conformational torsion-angle restraints in order to prevent bias towards a particular ring conformation for the sugars.

B1: Human deoxycytidine kinase (dCK) (enzyme)
chain: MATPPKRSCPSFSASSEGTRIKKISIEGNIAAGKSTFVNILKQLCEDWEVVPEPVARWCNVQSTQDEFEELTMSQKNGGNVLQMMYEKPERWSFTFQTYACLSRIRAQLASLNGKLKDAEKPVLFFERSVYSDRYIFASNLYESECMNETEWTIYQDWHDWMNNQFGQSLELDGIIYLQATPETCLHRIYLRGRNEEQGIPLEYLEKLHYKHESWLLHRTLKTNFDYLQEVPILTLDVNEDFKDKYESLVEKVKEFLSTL
notes: Made in E. coli with a His-tag that was cleaved by thrombin; The selenomethionine-substituted protein was used for MAD phasing; Residues 1 to 19 were not seen in the electron density; Crystallized with dC, ara-C or gemcitabine and ADP; also called human dCK; wild type dCK
  binding result: binds
